Reference: the supplement of paper PMC9112550, “Optimization of the antimicrobial peptide Bac7 by deep mutational scanning” (BMC Biology, 2022)

What follows are sequences tested on Escherichia coli TOP10 (assay: shrunken log2 fold change of peptide-encoding DNA abundance (4.5 h post-induction vs induction); higher = less antimicrobial activity (less host growth inhibition)). Conditions: time post-induction: 4.5 h; library: site-saturation at positions 5, 18, 19, 20.
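Also: peptides expressed intracellularly from a pBAD plasmid library in pooled LB shake-flask culture, induced with 0.3% L-arabinose, DNA abundance read by NGS, three biological replicates, DESeq2 with apeglm shrinkage.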

Q: RRIRGRPPRLPRPRPRPDIHPRP was tested. Which “shrunken log2 fold change” value did it give?
A: 0.439

Q: For RRIRHRPPRLPRPRPRPTHTPRP, which “shrunken log2 fold change” value is on record?
A: -0.00887

Q: For RRIRARPPRLPRPRPRPKVFPRP, which “shrunken log2 fold change” value is on record?
A: 0.193

Q: With RRIRCRPPRLPRPRPRPIPSPRP as the sequence, how does the “shrunken log2 fold change” value read?
A: -0.308

Q: RRIRRRPPRLPRPRPRPFADPRP was tested. Which “shrunken log2 fold change” value did it give?
A: -0.0461

Q: How did the “shrunken log2 fold change” value turn out when RRIRTRPPRLPRPRPRPVFNPRP was run?
A: -0.65

Q: Which “shrunken log2 fold change” value does the source give for RRIRWRPPRLPRPRPRPKMLPRP here?
A: 0.149

Q: How did the “shrunken log2 fold change” value turn out when RRIRCRPPRLPRPRPRPTFYPRP was run?
A: -0.237

Q: For RRIRGRPPRLPRPRPRPRYLPRP, which “shrunken log2 fold change” value is on record?
A: 0.282

Q: With RRIRYRPPRLPRPRPRPVKEPRP as the sequence, how does the “shrunken log2 fold change” value read?
A: 0.00241

Q: For RRIRRRPPRLPRPRPRPGVSPRP, which “shrunken log2 fold change” value is on record?
A: 0.249

Q: How did the “shrunken log2 fold change” value turn out when RRIRYRPPRLPRPRPRPGEAPRP was run?
A: 0.124

Q: Which “shrunken log2 fold change” value does the source give for RRIRCRPPRLPRPRPRPDVFPRP here?
A: -0.151

Q: Which “shrunken log2 fold change” value does the source give for RRIRTRPPRLPRPRPRPIIQPRP here?
A: -0.487

Q: With RRIRVRPPRLPRPRPRPNIPPRP as the sequence, how does the “shrunken log2 fold change” value read?
A: -0.463

Q: Which “shrunken log2 fold change” value does the source give for RRIRPRPPRLPRPRPRPVICPRP here?
A: 0.0853

Q: Which “shrunken log2 fold change” value does the source give for RRIRPRPPRLPRPRPRPAQSPRP here?
A: 0.448

Q: Which “shrunken log2 fold change” value does the source give for RRIRMRPPRLPRPRPRPFCPPRP here?
A: 0.0248

Q: How did the “shrunken log2 fold change” value turn out when RRIRARPPRLPRPRPRPHQCPRP was run?
A: -0.0483

Q: Which “shrunken log2 fold change” value does the source give for RRIRDRPPRLPRPRPRPGVAPRP here?
A: 0.76

Q: RRIRWRPPRLPRPRPRPVNWPRP was tested. Which “shrunken log2 fold change” value did it give?
A: 0.537

Q: With RRIRVRPPRLPRPRPRPKRFPRP as the sequence, how does the “shrunken log2 fold change” value read?
A: -0.0543

Q: With RRIRMRPPRLPRPRPRPNTEPRP as the sequence, how does the “shrunken log2 fold change” value read?
A: -0.0533

Q: With RRIRGRPPRLPRPRPRPNNRPRP as the sequence, how does the “shrunken log2 fold change” value read?
A: -0.112

Q: RRIRNRPPRLPRPRPRPHASPRP was tested. Which “shrunken log2 fold change” value did it give?
A: 0.065

Q: With RRIRLRPPRLPRPRPRPCFRPRP as the sequence, how does the “shrunken log2 fold change” value read?
A: 0.0965

Q: Which “shrunken log2 fold change” value does the source give for RRIRLRPPRLPRPRPRPAAPPRP here?
A: 0.545

Q: RRIRYRPPRLPRPRPRPWNWPRP was tested. Which “shrunken log2 fold change” value did it give?
A: -0.252

Q: How did the “shrunken log2 fold change” value turn out when RRIRMRPPRLPRPRPRPDAQPRP was run?
A: 2.65

Q: For RRIRKRPPRLPRPRPRPYMVPRP, which “shrunken log2 fold change” value is on record?
A: -0.211

Q: With RRIRSRPPRLPRPRPRPMHGPRP as the sequence, how does the “shrunken log2 fold change” value read?
A: 0.102

Q: How did the “shrunken log2 fold change” value turn out when RRIRMRPPRLPRPRPRPLQKPRP was run?
A: 1.02

Q: With RRIRFRPPRLPRPRPRPPARPRP as the sequence, how does the “shrunken log2 fold change” value read?
A: 0.694

Q: Which “shrunken log2 fold change” value does the source give for RRIRARPPRLPRPRPRPMQEPRP here?
A: 0.421

Q: How did the “shrunken log2 fold change” value turn out when RRIRLRPPRLPRPRPRPIIEPRP was run?
A: -0.171

Q: How did the “shrunken log2 fold change” value turn out when RRIRYRPPRLPRPRPRPHTKPRP was run?
A: -0.149

Q: Which “shrunken log2 fold change” value does the source give for RRIRHRPPRLPRPRPRPFWKPRP here?
A: -0.0724

Q: How did the “shrunken log2 fold change” value turn out when RRIRSRPPRLPRPRPRPQLHPRP was run?
A: -0.175

Q: RRIRERPPRLPRPRPRPSYPPRP was tested. Which “shrunken log2 fold change” value did it give?
A: -0.877

Q: How did the “shrunken log2 fold change” value turn out when RRIRWRPPRLPRPRPRPCIWPRP was run?
A: 0.0256

Q: RRIRPRPPRLPRPRPRPDVDPRP was tested. Which “shrunken log2 fold change” value did it give?
A: 0.108

Q: Which “shrunken log2 fold change” value does the source give for RRIRVRPPRLPRPRPRPHLQPRP here?
A: 0.14

Q: With RRIRGRPPRLPRPRPRPYSMPRP as the sequence, how does the “shrunken log2 fold change” value read?
A: 0.00971

Q: Which “shrunken log2 fold change” value does the source give for RRIRVRPPRLPRPRPRPSAFPRP here?
A: 0.0827

Q: Which “shrunken log2 fold change” value does the source give for RRIRKRPPRLPRPRPRPQGKPRP here?
A: 0.0114

Q: RRIRPRPPRLPRPRPRPESDPRP was tested. Which “shrunken log2 fold change” value did it give?
A: 0.235

Q: How did the “shrunken log2 fold change” value turn out when RRIRSRPPRLPRPRPRPYQLPRP was run?
A: -0.149

Q: With RRIRVRPPRLPRPRPRPSLLPRP as the sequence, how does the “shrunken log2 fold change” value read?
A: -0.23

Q: Which “shrunken log2 fold change” value does the source give for RRIRHRPPRLPRPRPRPEIQPRP here?
A: -0.102

Q: How did the “shrunken log2 fold change” value turn out when RRIRSRPPRLPRPRPRPFWPPRP was run?
A: 0.315

Q: Which “shrunken log2 fold change” value does the source give for RRIRCRPPRLPRPRPRPICAPRP here?
A: 0.107

Q: RRIRFRPPRLPRPRPRPYCQPRP was tested. Which “shrunken log2 fold change” value did it give?
A: -0.131

Q: With RRIRMRPPRLPRPRPRPDFLPRP as the sequence, how does the “shrunken log2 fold change” value read?
A: 0.0612

Q: How did the “shrunken log2 fold change” value turn out when RRIRMRPPRLPRPRPRPRGAPRP was run?
A: 1.44

Q: RRIRPRPPRLPRPRPRPYEFPRP was tested. Which “shrunken log2 fold change” value did it give?
A: -0.0919

Q: How did the “shrunken log2 fold change” value turn out when RRIRIRPPRLPRPRPRPTSGPRP was run?
A: -0.00782

Q: How did the “shrunken log2 fold change” value turn out when RRIRERPPRLPRPRPRPGDRPRP was run?
A: 0.172

Q: How did the “shrunken log2 fold change” value turn out when RRIRWRPPRLPRPRPRPLHDPRP was run?
A: 0.387

Q: How did the “shrunken log2 fold change” value turn out when RRIRLRPPRLPRPRPRPCHEPRP was run?
A: 0.0247

Q: RRIRERPPRLPRPRPRPSVCPRP was tested. Which “shrunken log2 fold change” value did it give?
A: -0.0246

Q: For RRIRRRPPRLPRPRPRPPMSPRP, which “shrunken log2 fold change” value is on record?
A: 0.142

Q: With RRIRRRPPRLPRPRPRPDVVPRP as the sequence, how does the “shrunken log2 fold change” value read?
A: -0.0225

Q: RRIRRRPPRLPRPRPRPSVSPRP was tested. Which “shrunken log2 fold change” value did it give?
A: -0.0175

Q: RRIRHRPPRLPRPRPRPHHIPRP was tested. Which “shrunken log2 fold change” value did it give?
A: -1.53

Q: Which “shrunken log2 fold change” value does the source give for RRIRARPPRLPRPRPRPTMFPRP here?
A: 0.121

Q: How did the “shrunken log2 fold change” value turn out when RRIRWRPPRLPRPRPRPQHDPRP was run?
A: 0.202

Q: Which “shrunken log2 fold change” value does the source give for RRIRSRPPRLPRPRPRPMSVPRP here?
A: -0.0847

Q: With RRIRDRPPRLPRPRPRPSNDPRP as the sequence, how does the “shrunken log2 fold change” value read?
A: 0.0978

Q: Which “shrunken log2 fold change” value does the source give for RRIRLRPPRLPRPRPRPWDWPRP here?
A: 0.185

Q: For RRIRLRPPRLPRPRPRPRNQPRP, which “shrunken log2 fold change” value is on record?
A: -0.204

Q: For RRIRDRPPRLPRPRPRPFLQPRP, which “shrunken log2 fold change” value is on record?
A: -0.091

Q: With RRIRWRPPRLPRPRPRPKETPRP as the sequence, how does the “shrunken log2 fold change” value read?
A: 0.0203

Q: Which “shrunken log2 fold change” value does the source give for RRIRIRPPRLPRPRPRPNSGPRP here?
A: -0.177

Q: For RRIRCRPPRLPRPRPRPFWFPRP, which “shrunken log2 fold change” value is on record?
A: -0.245

Q: How did the “shrunken log2 fold change” value turn out when RRIRQRPPRLPRPRPRPCKDPRP was run?
A: -0.294
